We go through one substance from patent US7109317.

This test addresses endogenous calcineurin (human) (UniProt P63098). Kind of test: cell-based or functional assay.

Sequence of FKBP12 (P62942 2-108 limits assumed): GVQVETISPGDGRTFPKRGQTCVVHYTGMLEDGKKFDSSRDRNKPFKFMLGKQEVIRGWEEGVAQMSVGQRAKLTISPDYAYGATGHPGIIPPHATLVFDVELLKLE
Sequence of endogenous calcineurin (human) (P63098 2-170): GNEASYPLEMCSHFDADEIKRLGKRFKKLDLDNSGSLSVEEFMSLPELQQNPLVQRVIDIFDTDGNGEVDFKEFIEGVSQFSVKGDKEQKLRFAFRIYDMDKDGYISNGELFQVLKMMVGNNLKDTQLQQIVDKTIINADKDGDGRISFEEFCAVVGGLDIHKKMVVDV

Take FKBP12 (from UniProt P62942 2-108): the suppression of PMA/ionomycin-induced activation of an NFAT-SEAP reporter, C40-phenyl-FK506 against FK506 amounted to 30 fold.
